The text below walks through data of a protein production outcome set (Wang et al. 2014).

The data set is described as follows: label from the status in PepcDB records.

For “MNLLTNEKTIKVFSSLIYTSLIISLIAMIFDVKLASKIFNTIGIISAILLFINKREIKKESMLIPLSILFLCVTNLIWEQLYKNSGSEIIGLYHSYHNVMKILFLGSSLTLFVMTFSSKHPLTKNALNIIYTIPFFLVLYYLLSEPEVRFSISDKIATSSAYMISFIGILTSQVILLKTEKRNLFFYFINHIIFFTIIVLSGTRAAILAYPLLSAIVLIPAILKDKKINLKLIILYIMVNIVCLVACQKTIMSRSENLISDINMYNQSNSESSVGARIAMYRSGLTSFIHAPMGQSAESRQLDIQKQAEQNPSLSGAALLTGIHLHNELIEAISLKGIIGGMALLLLYASLFYFSSFILKDYALTSLTLSLVIYGLSDVIFYGKNATTVWIVTYCLSILLVKRNRGVQ”, the protein production entry is “failed”.

Regarding “MNLLVIGGHERMEKDYMVMAKKKGYKTKVYTTMSSKLNNSIGRPDAVVILTSTVSHKMSRTVESQAKKQDILIVRHKNSSKVAFNECLDMVDECLGNCSKCKLKDKQKQKNILEHHHHHH”, the protein production entry is “failed”.

As to “MNLPMTMSLQTVSFEEFITTIAAALGCGLLVGLERERSKLKHEYKTFAGFRSFAISSLLGAICFLFGTAIGIVGALLIGAISIVSLKNQPNDPGVTTELAFIMTYFIGALCIWNISLAAGLAVIMTIILLAKQSMHGIASQWITESELRDGIFLLALLLIALPLVPNKPFWGPVLNPHVILKLLTLILFVQALAHIAKRLLSSKNALLLSSLASGFVSSTATIASLGLEVRSGRANAKTNAGAALMSCVSTLVQTLIIVVGISLAWFKLIIFPTLIALAFLAVWAFILLRKAEPSTTSPELDSRMFSLKEAVIIAGTLTLIQAGVYGLSLYLGNAGLIAGTLLASLFEIHAAIAAVIVQGEPNNSQTSLLIAFMGGFAVHAIAKSINSAISGGLHYALAFIPAQILHMTIFIGLLWMNIHWF”, the protein production entry is recorded as “failed”.

Consider “MNLRLAAALCAALSLCAVLAVPANFPALGGDARLTLAVFALATCAWIGTPIDDTYIALGAGLALTATGVISSDTLFGTLGEDTVWLLICAFVLAAAVARTGLAGRAAAFLVGGARTVRQLVHLTTAALVVTAFAMPATSGRAALALPVFLALAKVLADRKRLVVMLALLFPTVILLSAVATLIGAGAHLITVSVLWEATGDRIGFTQWLLLGLPLAVASSHLAAETVLLTTTRRADRAGPVRITAEEIQRHSESPVTGPWTQAEKRCALLLATVVALWCSEPLHRVSPAVVALIGAVVASSPALGTVRLKDALKTVPWSLLLFMAATMAMGVALADSGAAGWLVSGLPADVAPAVFLGVVVAVSTAAHLVLQSRSARSSVLVPLVIAAAVGAGVNPVAAALASTAAAGFCHTLPASAKPVTLFSDVPGVPTYTPRDLLRLSAVLAPLTALLVLFFAAAVWPLLGVPVTR”, for which the protein production entry is “failed”.

Take “MNLYFRLFWLLFWRTRHCRKIDFLGTSRITYRALPSDCDINFHLTNSRYPAFMDLARTYMLAEMGLLKRFLKLKWMPIVNAAEFTYIRDIKPLKKFEIETKVVGWDEKYFYIEQRFISERGLHCIVHVRGVFVCKGKQIPLEVLVKEAGYTAPAPELPPEVVKWKAFLQLKKERNL”: the protein production entry was “failed”.

Take “MNMKFTKILVQIAALYVFYMVGTWVQEMLNIPIPGSLIGMFLLLVLLSLKVLPVKWFDLGAETLVAIMPFLLIPPTLGLMNYGAFFMSKGISLFITVVASTFLIIIVAGHTGQYLANRKERESR”: the protein production result is “failed”.

As for “MNMLIDISTEILMSLLFFYLFYRIMVKGTNGVIEILVEAMMFSMFVGLILYFQTRITFTTASMAVDMPMAIMGGAVAWAYFTRNSSMTTSRKSAFISLLISNEVAMAYFLTIITYPNIISHGVFYTLVHSVSSYLFIASMEIEMILSLLFLEKDSIKKIVFSGVVFSGLFNPFFMPQSNFSLYGTIYFTAVMVFFMAILFEIIAVKFDTMNFGKIVMITLFFGLMGFSAAGLFASIVFGSLITLLLFDISMMAQMAFYFYFLFRNTEIRGRPGWSYNRYSMFYVLLFSFAAEWLASASIISVVNGVNGVVPFLSNFGVGVYSGIVPAILNAIFIFGSVTNSYVFLIIMGVEMASLVIVRIGRLRWKEKNGISHSP”, the protein production entry is “failed”.

As to “MNMLVINGTPRKHGRTRIAASYIAALYHTDLIDLSEFVLPVFNGEAEQSELLKVQELKQRVTKADAIVLLSPEYHSGMSGALKNALDFLSSEQFKYKPVALLAVAGGGKGGINALNNMRTVMRGVYANVIPKQLVLDPVHIDVENATVAENIKESIKELVEELSMFAKAGNPGV”, the protein production entry is recorded as “not failed”.

For “MNMNHYRPVILADQRVVSDFELDPLTRKISIKILQGHEQGNKGMVDTLRQNLQQRLGVPVEIPLALMNHLVKLVRDGNEVITATLAAGNDINEDGKAASYQVIDAEPGDHTGVQVGLAIDIGTTTVVVYLVNMVNGDIIAKASDYNGQIKLGDDILSRIMAAREEKGLQELQALIVNTLNALIQQLCLEAELKPQAITGVCIGANTTMVHLCLGLDPGSICRAPYRPAVNNAGIFCAGEIGLAVHPLAPTYCLPSIGSYIGGDVLAGILVSGMHKQEEVALLADIGTNGEFILGNQEWLVGCAGAAGPALEGGVTEWGIRAEQGAVDQVSIDSEHHVGYTTIDNAPARGICGSGLIDSLAELFLNGLINRAARFTDGRERFTIVPADESATGKEIFISQKDINSLMRTKGAVNAALEVLMESVGCQWEEIAKFYAAGAFGQYLPIESAVTIGLYPDLPREQMLRLGNSSGEGARQVLLSNSKRQEIEEIAGKITYFEMNASSSFMDKYGGSRFLPHTNMDLFPSVQEKLAVRQRSRC”, the protein production result was “failed”.

“MNMNITYISIYKTSLPVLVSLLMEYLIGFTDTAYLGRVGETELAASAIAGTYYMIIYMIGFGFSIGAQILIAQYNGNQQYKEAGKILSQGILFLLIIAVIVILFSSIISPIILKSIIDSESVLQAVLQYLDWRIYGFFFSFTIIMFRAFYIGIIHTSALMLNSITMVAINVILNYILIFGALGIPVLGISGAAIASVISEAVAVIHFIIYTQKNVSSCKYGLKRRITIDCTILKKILSISIWMMLQHGLVFGSWFVFFITMEHFGERSLAITNIVRNISSFLFLFVQAFASVVSSLVGNLIGENKGNSILYVCKKVIFLCYMTILPIMVLFLFFPSSTLRIYSDNTVLVFEAIPTLKVMLTSYLIAVPTFVFFSAVSGIGHAVASLLIAFISLVVYIVYVETISHFSSSVPLLWTSEHIYFSCVFILSLYHIHHSWMSFINQDKKLTTNIS”: the protein production entry was “failed”.

Consider “MNNHQTPQATSPLAAWLCYLEHLHSQPIELGLERVKQVAERLDLLKPAPKIFTVAGTNGKGTTCCTLEAILLAAGLRVGVYSSPHLLRYTERVRIQGQELSEAEHSHSFAQIEAGRGDISLTYFEFGTLSALQLFKQAKLDVVILEVGLGGRLDATNIVDSDVAAITSIALDHTDWLGYDRESIGREKAGVFRGGKPAVVGEPDMPQSIADVAAELGAQLYRRDVAWKFSQQEPFDQQEPVDQQINGWHWQCGERQLTGLPVPNVPLANAATALAVLHYSELPLSDEAIRQGLQAASLPGRFQVVSEQPLLILDVAHNPHAARYLVNRLAQVINPVNASKQGKVRAVVGMLSDKDIAGTLACLSERVDEWYCAPLEGPRGASAGQLAEHLVSARQFSDVETAWRQAMQDADTQDVVIVCGSFHTVAHVMAALHL”, for which the protein production result is listed as “not failed”.

In the case of “MNNINTIIQREYMIRVRKKSFLVMTILMPILFVGLVSLPIVLAQLGGDMKTIAIADRTGEYEQLFKENDEFRFVHAEKTAEEYRKMGADKSGIDAVLEIRQDLLEDPNAVAIYGYKQLPASVSNHISRILSDYLSDKKIASYNIPDIKQILADSKIELSVHTYKWSEDGTNERTSGELASGISMMMMVVIFFLIMTLAAMVQAGVLEEKKNRIMEVMVSSTRPFNLMMGKIIGIGLVGLTQLICWGVLTVLLLTVAQIAFLGNLYSPEALSRMQASDITGMASSMNAEDFAEMKEVMNIIGGINFGELFVMFLIFFIGGYLLYSSIFAVIGSMVSNDEDTSQFMMPVMILLMFGFYAAYGSMNNPEGSLAFWCSLIPFTSPLVMMVRLPYDVPLWQELLSIGLLYGCFVLMTWIGAKIYRVGVLMYGKKPSIKEIIRWINYK”, the protein production result is “failed”.

For the sequence “MNNIRQLTKDEYPKAIELSWQVFTITGKEDFNNEGLEFFKSFIYNKKCINEIIFYGSFDNEALTGILGIKSNGKHISLFFIKPEYHRHGLGKKLFHYASTLHPSIETTVNSSTYAIPFYRSLGFAVVGEKQNYHGLCSTPMRRYHAVFVQKNKYTLRTWQTEDAHSLVQELNNKKIWDNCRNVFPHPYRLEHAETFIDLIQKKEGIHDFCIEVNGKAVGNIGFTPGTDVECFNAEVGYVIGEKYWNQGIVTDALQEAIYHYFTYTNTIRIFALVFEHNLPSMRVLEKAGFNKVGIMTKSIFKNGHFTNAHLFELLKNVLEHHHHHH”, the protein production result is reported as “failed”.

Regarding “MNNISSNIKKVLFIFLVIFFVTISYITYFELIVSPKIVNNTDNKRLWAKRNEVLRGTIYDRNKKALTKSERVNTLTQKREYTGGAMFSHVLGYVNPQYGLTGLEAKYDQYLMGADDQPINQYLMELIKNKGKVSPEDKRGEDVVTTLDYNIQQQAYNLLGDNKGSVVVLNPKTGEILAMVSKPSYDPNDDALKASWAALNSNPDRPLLNRAVSGLYPPGSTFKTVTAISALENISGIQNETFNDPGQLVFNSTESLRDFGGESFGDIGFKHAYVVSSNVVFGKIGLQLGNNNLRQTAESFYFNKNIPCDGIVIDKSKFPTLKSYEKGNMAQSAIGQASVLATPIQMALVASTVANDGVMMKPHVVNEILSPNGDKIKSIEPESIGNIVSKENAATMKDFMRNVVEDGTGVNAAVEGIQVAGKTGTADHKVNGKDATPHSWFIGFAPYDNPQVAIAVIVEDGGQGGKAAAGIASKVIQTALQK”, the protein production result was “failed”.

Take “MNNKQLDFTEGSITKKMVVFSWPIFLSNLLQTSYQITDSLWVGNLLGASALGALSISATVVFMVLSFIIGLNGATLTVLSQRQGAKDEAGLKASLNAFVFVLGLLAILLGLIGYFSASSILQLLGTPEEILPLAESYLKINFIGILFLFGYNFIGTVLRAMGDSRSPVRFIFIAVILNIILDPLMIAGFNLGIDGAAYATIVSQGTAFIYGLIYSVRKAGVPFQIPYVPEKRYFFVLFKLGLPAGLSMITISAGVTAILSVVTSFGEEAVAGFGAAQRLDSLIMLPALTLGSAVNTIAGQNIGANKWERVRATAKQGVMLIIAVTLIIGLITFIGAQFFIRLFVRDEATVAFGAMYIQTIAFFYPFLGINFVLNGIVRASGAMFPVLLLNIISFWILRYPLTYWMSDLFGERGIALGMGFAFVVSSLIATGYYFLGNWRKVGEELAQKTGHSKV”: the protein production entry is recorded as “failed”.

Consider “MNNLFAAPTPEEHAALLQEIGPLPLSGQAWPDWVRILAWIVLAVIGVQIVTTAIGLPPGQVNPVLAGTIILCFLGLALVSWHMQISVTRIDESGLRQTWITRREVAWQDIQFAKFVPLLFSKRLVVFTRHGRPIVFQGGTRDLQVAFAKISLLYRRKR”, for which the protein production result is listed as “failed”.

On to “MNNPDLPYRQALECLSQKQYNFTEVRRLLTEAFSAGHPAAAFELAKHLMDADSPYQDREQGMEMLRIAAEQGHPYARYNLAYIQELEGAPPETLIPLYRPLAEEGLPEAQVRLMYLLYASRHFEEALEWAKTSAKNNNPHGQYLLAQYCRYGTPPDFETAHLLYRKSAAQGLPEAHWQLGLQYRFGQGTKVDTAQAVNHLRAAAQQGYIPAYTPLAELILPTAPDEAVHWFQQAAQENDPDAHAALADIYLQGKHLERNHKLALHHAEAAAAERHPEGLRILGDICRYGLGIAPDTEKARHYYRQAAEAGSLSAYQKLISDSALNHPDQYGGIKDSAIRRQRAERLYQKAQALHYGLQCAPEYAAALKLYTEAAELGHSKAQTNLGSMYYFGQGMTADYNEARKWFEKAAAKKDSMAFYNLACIHYSGHGVEPDKEKACRYLQEAINNGYGQKSVLQELLQQWQNAV”, for which the protein production result is given as “failed”.

As for “MNNQYKLIEEFNNAEFDKSLKWFSPPKDWEVNSNKSKLIVKPDKETDFWQKTHYEFQVDNGHFLYYELNGDFRLITKVKSKPANRYDQAGLMVRFSKDTWLKTSVEYIPDDNSKLGVVVTKNGYSDWSSQEFFGDLNSLYYRITRRGNNYYVDYSLDGDLWKQIRMVYLFEEKDCMKVGIYACSPQGDGYEAEFEFIKIENIDDNTKVY”, the protein production result is given as “failed”.
